# Source: the Human Domainome abundance scans (Beltran et al. 2025)
# ± gives the uncertainty stated by the source.
# B1: Nucleosome-remodeling factor subunit BPTF, residues 2862 to 2918; numbered along this chain, Q12830 (parent)
# chain: TKKDTKLYCICKTPYDESKFYIGCDRCQNWYHGRCVGILQSEAELIDEYVCPQCQST
# Variants of: B1
# Assay: abundance fitness (aPCA) (normalised: wild type 0, dead -1); higher = more abundant; growth selection in yeast, the domain comes from the species named
# Settings: Homo sapiens
row,Variant,abundance fitness
1,Q55I,-0.141 ± 0.12
2,Q55L,-0.157 ± 0.078
3,Q55P,-0.101 ± 0.094
4,Q55H,-0.167 ± 0.12
5,Q55A,-0.025 ± 0.084
6,Q55F,-0.375 ± 0.13
7,P14N,-0.191 ± 0.14
8,P14T,-0.206 ± 0.083
9,P14W,-0.447 ± 0.088
10,P14D,-0.581 ± 0.12
11,P14S,-0.161 ± 0.074
12,P14Y,-0.131 ± 0.13
13,Q28K,0.084 ± 0.1
14,Q28D,-0.079 ± 0.12
15,Q28N,-0.133 ± 0.12
16,Q28G,-0.028 ± 0.094
17,Q28R,-0.081 ± 0.073
18,Q28E,-0.072 ± 0.15
19,R26E,-0.087 ± 0.11
20,R26V,-0.18 ± 0.075
21,R26S,0.008 ± 0.077
22,R26M,-0.193 ± 0.1
23,R26Q,-0.203 ± 0.11
24,I22V,-0.038 ± 0.088

row,Variant,abundance fitness
1,I22K,-0.551 ± 0.12
2,I22Y,-0.617 ± 0.15
3,I22S,-0.786 ± 0.1
4,I22A,-0.578 ± 0.1
5,K12W,-0.56 ± 0.088
6,K12P,-0.907 ± 0.12
7,K12L,-0.121 ± 0.062
8,K12V,-0.808 ± 0.094
9,K12S,-0.119 ± 0.058
10,K12R,-0.07 ± 0.062
11,K12C,-0.104 ± 0.067
12,K12D,-0.2 ± 0.12
13,E44A,-0.001 ± 0.1
14,E44S,-0.048 ± 0.077
15,E44I,-0.193 ± 0.12
16,Y31S,-0.693 ± 0.076
17,Y31D,-1.01 ± 0.17
18,Y31C,-0.206 ± 0.094
19,Y31K,-0.649 ± 0.11
20,Y31T,-0.723 ± 0.095
21,Y31L,-0.279 ± 0.064
22,Y31R,-0.79 ± 0.082
23,I46S,-0.095 ± 0.074
24,I46W,-0.154 ± 0.095

row,Variant,abundance fitness
1,I46T,0 ± 0.084
2,I46L,-0.027 ± 0.07
3,I46M,-0.037 ± 0.1
4,I46H,-0.11 ± 0.17
5,I46Y,-0.282 ± 0.12
6,I46D,-0.365 ± 0.15
7,Q53R,-0.078 ± 0.08
8,Q53H,-0.017 ± 0.14
9,Q53N,0.078 ± 0.11
10,Q53C,-0.16 ± 0.13
11,Q53A,-0.052 ± 0.079
12,Q53L,-0.047 ± 0.084
13,Q53E,-0.009 ± 0.092
14,P52K,0.126 ± 0.1
15,P52A,-0.058 ± 0.08
16,P52S,0.054 ± 0.082
17,P52R,-0.048 ± 0.077
18,P52V,-0.017 ± 0.08
19,P52T,-0.071 ± 0.079
20,P52M,-0.149 ± 0.11
21,P52E,0.009 ± 0.091
22,P52Q,-0.033 ± 0.12
23,P52W,-0.345 ± 0.13
24,P52F,0.032 ± 0.12

row,Variant,abundance fitness
1,E17T,-0.2 ± 0.083
2,E17H,-0.168 ± 0.14
3,E17G,0.055 ± 0.08
4,E17K,-0.013 ± 0.099
5,E17Y,-0.294 ± 0.12
6,E17M,-0.131 ± 0.1
7,E17F,-0.052 ± 0.11
8,E17C,-0.288 ± 0.084
9,N29G,-0.068 ± 0.12
10,N29V,-0.064 ± 0.13
11,N29M,-0.1 ± 0.21
12,N29T,-0.191 ± 0.09
13,I38P,-0.428 ± 0.095
14,I38G,-0.489 ± 0.095
15,I38C,-0.582 ± 0.098
16,H32M,-0.944 ± 0.13
17,H32N,-0.879 ± 0.17
18,H32P,-0.95 ± 0.14
19,H32K,-0.979 ± 0.15
20,H32F,-0.891 ± 0.11
21,H32I,-1 ± 0.15
22,H32R,-0.808 ± 0.11
23,D4T,-0.124 ± 0.066
24,D4Y,-0.154 ± 0.073

row,Variant,abundance fitness
1,D4E,-0.005 ± 0.1
2,D4C,-0.316 ± 0.087
3,D4G,-0.163 ± 0.063
4,D4K,-0.005 ± 0.086
5,D4F,-0.226 ± 0.077
6,D4A,-0.18 ± 0.062
7,D4N,-0.087 ± 0.066
8,D4R,-0.446 ± 0.062
9,Y21N,-0.134 ± 0.19
10,Y21V,-0.19 ± 0.091
11,Y21K,-0.196 ± 0.18
12,Y21R,-0.151 ± 0.084
13,Y21M,0.118 ± 0.11
14,L39A,-0.306 ± 0.39
15,L39D,-0.062 ± 0.39
16,D16V,-0.315 ± 0.064
17,D16L,-0.555 ± 0.069
18,D16R,-0.515 ± 0.077
19,D16N,-0.181 ± 0.12
20,D16Y,-0.757 ± 0.13
21,D16S,-0.362 ± 0.072
22,Y8L,-0.043 ± 0.081
23,Y8K,0.065 ± 0.15
24,Y8C,-0.028 ± 0.12

row,Variant,abundance fitness
1,Y8E,0.166 ± 0.12
2,Y8M,0.015 ± 0.1
3,Y8T,-0.041 ± 0.097
4,Y8S,-0.014 ± 0.078
5,Y8F,-0.037 ± 0.15
6,G33I,0.011 ± 0.14
7,G33P,0.053 ± 0.075
8,G33W,-0.445 ± 0.097
9,L45R,0.04 ± 0.07
10,L45T,-0.03 ± 0.099
11,L45Y,-0.179 ± 0.1
12,L45D,-0.04 ± 0.11
13,L45W,-0.185 ± 0.1
14,L45N,-0.017 ± 0.1
15,L45V,-0.001 ± 0.08
16,C24D,-0.765 ± 0.12
17,C24P,-0.539 ± 0.095
18,C24A,-1.02 ± 0.16
19,C24M,-1.05 ± 0.13
20,C24F,-0.735 ± 0.14
21,C24S,-0.976 ± 0.1
22,C24N,-0.966 ± 0.16
23,T5M,0.024 ± 0.094
24,T5I,-0.017 ± 0.062

row,Variant,abundance fitness
1,T5E,0.064 ± 0.12
2,T5Y,-0.016 ± 0.066
3,R34F,-0.258 ± 0.085
4,R34Y,-0.107 ± 0.071
5,R34I,-0.164 ± 0.075
6,R34M,-0.251 ± 0.11
7,R34N,0.075 ± 0.079
8,R34H,0.035 ± 0.073
9,E42L,-0.468 ± 0.11
10,E42F,-0.274 ± 0.18
11,E42M,-0.288 ± 0.15
12,E42K,-0.083 ± 0.11
13,E42S,-0.205 ± 0.094
14,E42A,-0.099 ± 0.091
15,E42Q,-0.021 ± 0.1
16,E42D,-0.003 ± 0.2
17,G23N,-0.133 ± 0.14
18,G23F,-0.139 ± 0.13
19,G23H,0.029 ± 0.14
20,G23P,-0.297 ± 0.1
21,G23D,-0.085 ± 0.096
22,G23V,-0.223 ± 0.079
23,G23M,-0.016 ± 0.12
